pKd: −log10 of the molar value.
System: GST:p33ΔTMD (Citrus tristeza virus (isolate T36))
Test: EMSA

LMT1 full length (1-780)
pKd: 6.92

Source: publication PMC8625556
